From patent publication US20100323974A1 come the findings set out here.

For assay [1], the target named is mutated e-mH2A1.1 nucleosome complex (HXTX motif at positions 213-216 converted to AAAA) (human) (UniProt O75367). The assay is described as follows: tagged nucleosome complexes isolated at 300 mM NaCl, silver stained SDS-PAGE, PARP-1 relative to histone H1.
The target of assay [2] is poly(ADP-ribose) polymerase I (PARP-1), native, co-purified from HeLa cells (UniProt P09874). The assay is described as follows: cell-based or functional assay.
Sequence of poly(ADP-ribose) polymerase I (PARP-1), native, co-purified from HeLa cells (P09874 2-1014 limits assumed): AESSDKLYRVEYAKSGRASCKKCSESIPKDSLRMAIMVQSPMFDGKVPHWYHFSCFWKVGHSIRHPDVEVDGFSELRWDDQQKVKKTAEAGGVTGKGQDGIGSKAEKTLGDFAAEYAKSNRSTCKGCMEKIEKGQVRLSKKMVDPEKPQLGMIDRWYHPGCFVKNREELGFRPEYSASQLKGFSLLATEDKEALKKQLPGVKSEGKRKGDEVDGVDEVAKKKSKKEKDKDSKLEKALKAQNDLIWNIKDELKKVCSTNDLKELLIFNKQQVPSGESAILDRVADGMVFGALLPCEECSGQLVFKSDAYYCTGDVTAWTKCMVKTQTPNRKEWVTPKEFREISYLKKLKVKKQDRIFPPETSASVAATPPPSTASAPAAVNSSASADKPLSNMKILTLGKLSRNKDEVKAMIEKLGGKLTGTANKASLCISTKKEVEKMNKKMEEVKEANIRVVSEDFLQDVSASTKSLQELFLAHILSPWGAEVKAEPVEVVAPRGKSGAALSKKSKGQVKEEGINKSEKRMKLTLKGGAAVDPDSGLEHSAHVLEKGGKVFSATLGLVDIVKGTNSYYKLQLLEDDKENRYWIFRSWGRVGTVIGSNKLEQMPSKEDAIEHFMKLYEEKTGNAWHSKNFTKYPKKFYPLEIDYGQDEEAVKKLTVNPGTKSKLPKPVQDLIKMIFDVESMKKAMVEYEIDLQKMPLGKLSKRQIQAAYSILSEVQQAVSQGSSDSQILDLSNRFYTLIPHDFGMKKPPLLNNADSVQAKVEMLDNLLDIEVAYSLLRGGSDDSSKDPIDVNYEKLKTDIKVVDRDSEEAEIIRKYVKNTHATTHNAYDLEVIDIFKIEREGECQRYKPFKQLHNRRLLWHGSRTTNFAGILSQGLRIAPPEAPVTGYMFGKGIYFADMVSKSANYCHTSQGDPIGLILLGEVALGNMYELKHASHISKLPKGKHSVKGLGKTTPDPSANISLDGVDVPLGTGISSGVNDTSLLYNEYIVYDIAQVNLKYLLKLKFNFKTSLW

Sequence of mutated e-mH2A1.1 nucleosome complex (HXTX motif at positions 213-216 converted to AAAA) (human) (O75367 whole entry, change not shown, one chain of several): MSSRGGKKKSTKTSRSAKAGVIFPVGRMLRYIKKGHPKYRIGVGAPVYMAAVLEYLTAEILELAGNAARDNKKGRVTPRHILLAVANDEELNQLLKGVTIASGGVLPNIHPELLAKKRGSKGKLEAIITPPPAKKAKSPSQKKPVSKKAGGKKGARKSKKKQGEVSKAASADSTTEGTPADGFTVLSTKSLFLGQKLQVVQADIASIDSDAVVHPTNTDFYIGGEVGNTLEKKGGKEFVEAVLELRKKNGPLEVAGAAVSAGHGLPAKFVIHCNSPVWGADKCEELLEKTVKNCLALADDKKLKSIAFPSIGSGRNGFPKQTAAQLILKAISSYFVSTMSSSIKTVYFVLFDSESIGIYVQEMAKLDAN

Regarding “poly(ADP-ribose) polymerase I (PARP-1), native, co-purified from HeLa cells (from UniProt P09874 2-1014)”, the amount of PARP-1 associated, percent of that associated with the WT emH2A1.1 nucleosome complex in assay [1] lay within 8 to 10%.

In assay [2], “mutated e-mH2A1.1 nucleosome complex (HXTX motif at positions 213-216 converted to AAAA) (from UniProt O75367 1-369)” displayed an extent of PARP-1 labeling during the first minute, against PARP-1 associated with the wild type e-mH2A1.1 nucleosomes of 37 times.
